Tests used:
[1] = biological target: human kappa opioid receptor, stably expressed in CHO cells (hKOR-CHO) (human) (UniProt P41145)
[2] = biological target: human kappa opioid receptor Tango construct (tTA-hKOR) (human) (UniProt P41145)
[3] = biological target: human kappa opioid receptor fused to the alpha7 nicotinic signal peptide and eGFP (pcDNA3.1) (human) (UniProt P41145)
Chain of human kappa opioid receptor fused to the alpha7 nicotinic signal peptide and eGFP (pcDNA3.1) (human) (P41145 whole entry, the tested form may be a part): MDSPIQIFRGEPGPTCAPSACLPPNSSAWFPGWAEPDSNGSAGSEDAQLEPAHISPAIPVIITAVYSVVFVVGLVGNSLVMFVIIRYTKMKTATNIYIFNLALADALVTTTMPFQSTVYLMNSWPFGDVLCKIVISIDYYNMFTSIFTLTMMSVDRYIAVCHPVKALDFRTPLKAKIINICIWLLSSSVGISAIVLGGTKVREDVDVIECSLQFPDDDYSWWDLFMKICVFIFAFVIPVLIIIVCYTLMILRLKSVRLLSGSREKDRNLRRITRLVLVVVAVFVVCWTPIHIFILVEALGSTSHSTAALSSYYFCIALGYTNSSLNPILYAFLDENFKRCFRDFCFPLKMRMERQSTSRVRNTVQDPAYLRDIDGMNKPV

Chain of human kappa opioid receptor Tango construct (tTA-hKOR) (human) (P41145 whole entry, the tested form may be a part): as above
Chain of human kappa opioid receptor, stably expressed in CHO cells (hKOR-CHO) (human) (P41145 whole entry): as the sequence (P41145 whole entry, the tested form may be a part) above

Substance | EC50 of [35S]GTPγS binding to hKOR-CHO cell membranes (G-protein activation) [1] [nM] | efficacy (maximal [35S]GTPγS binding to hKOR-CHO cell membranes) [1] [CPM] | PRESTO-Tango β-arrestin recruitment: fold shift of EC50 against the mean of same day DynA WT controls [2] [fold shift] | TRUPATH (BRET) G-protein dissociation, Gα3 subunit: fold shift of EC50 against the mean of same day DynA WT controls [3] [fold shift]
Dynorphin A R6W mutant peptide | 105 | 1240 | 16 | 11
Dynorphin A R9C mutant peptide |  |  | 5 | 3
Dynorphin A L5S mutant peptide |  |  | 13 | 7

— publication PMC8698333
